Source: the supplement of paper PMC9732359
± gives the uncertainty stated by the source.

Test: protein stability index of a GFP-peptide fusion (yeast GPS) (PSI 1-4); higher = more stable; sorted into four equal gates, so the index is relative within each strain
Procedure, shortened: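 The protein stability index combines read frequencies across sorting gates, each weighted by its gate number and then summed. To obtain those frequencies, a pooled yeast library of GFP fusions to tiled 17-residue yeast protein peptides, on a plasmid also expressing Cherry, was grown to mid-log phase in leucine-free medium. The cells were sorted into four equal gates by GFP/Cherry ratio before plasmid amplification by PCR and Illumina sequencing.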

Sequence | protein stability index (doa10∆) | protein stability index (pdr5∆) | protein stability index (san1∆) | protein stability index (ubr1∆)
FLNSNAVVVGTGNIKHE [COR1] | 1.18 ± 0.085 | 1.36 ± 0.15 | 1.06 ± 0.22 | 1.24 ± 0.12
FLQSQRQQQQRSILQSL [SWI1] | 1.8 ± 0.062 | 1.92 ± 0.073 | 1.41 ± 0.087 | 1.55 ± 0.054
FLTNELIRLQMEKLDAK [SWI3] | 2.97 ± 0.11 | 2.98 ± 0.085 | 3.14 ± 0.051 | 2.96 ± 0.078
FMEAQGAGIQIIMQADL [FAS2] | 2.36 ± 0.094 | 2.33 ± 0.12 | 2.08 ± 0.24 | 2.11 ± 0.083
FMKKLRAAKLAAPENEK [RPS15] | 2.85 ± 0.14 | 3.25 ± 0.17 | 2.48 ± 0.11 | 3.48 ± 0.22
FMTKLLEVANDLQLLYV [IRR1] | 1.72 ± 0.11 | 1.98 ± 0.075 | 2.23 ± 0.12 | 1.24 ± 0.045
FNAGSNPPSYQSSEDVI [RPB7] | 2.83 ± 0.24 | 2.67 ± 0.21 | 2.72 ± 0.27 | 2.65 ± 0.14
FNEKFPSLIQEEEEDTT [NUT1] | 2.78 ± 0.086 | 3.15 ± 0.093 | 3.06 ± 0.074 | 3.06 ± 0.078
FNFFEPIKEAKIKHGSV [YMR129W/POM152] | 2.7 ± 0.054 | 2.89 ± 0.056 | 2.54 ± 0.065 | 2.83 ± 0.046
FNKNLGKGPGCGFWQPA [PRP8] | 3.18 ± 0.16 | 3.25 ± 0.15 | 3.39 ± 0.14 | 3.54 ± 0.075
FNNEKETEKFALERNWP [RPN12] | 2.68 ± 0.07 | 2.63 ± 0.055 | 2.76 ± 0.041 | 2.84 ± 0.037
FNSVVNLSRYPKSGIDI [MTR3] | 2.66 ± 0.055 | 2.96 ± 0.086 | 2.82 ± 0.079 | 3.03 ± 0.075
FNVPVVSKQLGNGLVDE [YAR002W/NUP60] | – | 3.66 ± 0.22 | 3.26 ± 0.14 | 2.99 ± 0.14
FPNIAIRPTELRLPFSA [PRP8] | 2.11 ± 0.084 | 1.85 ± 0.086 | 1.93 ± 0.09 | 2.23 ± 0.076
FPQGLNIVMDSKQNGIE [SSN8] | 3.11 ± 0.091 | 3.04 ± 0.21 | 3.26 ± 0.078 | 2.61 ± 0.1
FPRSRSRSRSSIRSISP [ESC2] | 2.86 ± 0.2 | 3.18 ± 0.13 | 3.03 ± 0.09 | 3.34 ± 0.19
FQALDSEETQFKYVEDR [ITC1] | 2.88 ± 0.097 | 3.44 ± 0.12 | 3.06 ± 0.069 | 3.45 ± 0.14
FRALGIIPDGEILEHIC [RPB2] | 2.43 ± 0.057 | 2.55 ± 0.12 | 2.46 ± 0.089 | 2.79 ± 0.047
FRISLGLPVGAIMNCAD [RPL23A] | 1.95 ± 0.045 | 1.9 ± 0.044 | 1.57 ± 0.057 | 1.7 ± 0.035
FRKVKLRVDEVQGKNLL [RPS1B] | 3.25 ± 0.1 | 3.35 ± 0.15 | – | 3.28 ± 0.074
FSEEKAEEFDFNVPVVS [YAR002W/NUP60] | 2.48 ± 0.18 | 1.34 ± 0.16 | 1.3 ± 0.13 | 1.15 ± 0.12
FSFGAKPAEKNNNETSK [YJL041W/NSP1] | – | 2.52 ± 0.24 | – | 3.08 ± 0.24

Sequence | protein stability index (doa10∆) | protein stability index (pdr5∆) | protein stability index (san1∆) | protein stability index (ubr1∆)
FSKGDADVLVDRVVSSD [SRP72] | 3.28 ± 0.091 | 3.2 ± 0.098 | 3.02 ± 0.098 | 3.04 ± 0.081
FSKIAEYYRIQKQLPQK [ESC2] | 3.18 ± 0.16 | 2.99 ± 0.15 | 3.26 ± 0.088 | 3.19 ± 0.17
FSNRFLPVASPFHSHLL [FAS1] | 2.5 ± 0.13 | 2.98 ± 0.11 | 3.19 ± 0.27 | 2.76 ± 0.098
FSQKANKTKAVDNTVPS [YOR098C/NUP1] | 2.15 ± 0.085 | 1.63 ± 0.056 | 1.81 ± 0.1 | 2.17 ± 0.046
FSRRFDCRDVYCHEKEL [CSN9] | – | – | – | 2.99 ± 0.19
FSSLAISEINFLHESSF [CSI1] | 2.21 ± 0.038 | 2.56 ± 0.035 | 2.26 ± 0.047 | 2.53 ± 0.039
FTAEGIVPDLIINPHAI [RPB2] | 2.24 ± 0.069 | 2.36 ± 0.081 | 2.08 ± 0.081 | 2.67 ± 0.082
FTKKPVTPNDKIPEREE [SIR4] | 3.05 ± 0.13 | 2.95 ± 0.087 | 3.27 ± 0.13 | 3.1 ± 0.063
FTKNEEKLLKELENNEF [ITC1] | 2.26 ± 0.083 | 2.28 ± 0.074 | 2.27 ± 0.083 | 2.24 ± 0.27
FTNPSIVKVFHGAFMDI [RRP6] | 1.16 ± 0.084 | 1.57 ± 0.062 | 1.63 ± 0.11 | 1.38 ± 0.049
FTNRSTMMANFEEWIKM [BRN1] | 2.12 ± 0.18 | 2.31 ± 0.19 | 2.32 ± 0.1 | 2.65 ± 0.054
FTNVLTKYSDVLGFLQL [YJL039C/NUP192] | 2.59 ± 0.072 | 2.07 ± 0.071 | 2.85 ± 0.053 | 2.01 ± 0.052
FTNVPLNLEQVTLNKYC [YJL039C/NUP192] | 1.99 ± 0.047 | 1.99 ± 0.045 | 1.92 ± 0.077 | 2.14 ± 0.045
FTPQEIEYCSAQPSVQS [FAS2] | 2.88 ± 0.27 | – | – | –
FTRIFLPIYDSLMSSQN [SIR3] | 2.24 ± 0.045 | 2.05 ± 0.038 | 1.99 ± 0.074 | 2.21 ± 0.037
FVDDMLRDYRFEDATRE [SNF5] | 2.92 ± 0.096 | 3 ± 0.095 | 3.19 ± 0.082 | 3.35 ± 0.046
FVDLNEKELQNEIKQLG [SRB4] | 2.31 ± 0.072 | 2.41 ± 0.17 | 2.13 ± 0.2 | 2.78 ± 0.14
FVEVERARVTKDLVEIK [RPN5] | 3.37 ± 0.11 | 3.44 ± 0.093 | 3.33 ± 0.066 | 3.56 ± 0.058
FVIGVIIGTFSDSYKVS [RRP40] | 1.43 ± 0.057 | 1.41 ± 0.068 | 2.04 ± 0.12 | 2.23 ± 0.078
FVIHIQEKNFQTGIFVY [RPB5] | 1.98 ± 0.062 | 1.58 ± 0.05 | 1.54 ± 0.16 | 1.88 ± 0.081
FVMKTRRRKGISTGGFM [SNU114] | 3.44 ± 0.15 | – | – | 3.18 ± 0.11
FVRQAAMIALSMILIQQ [RPN2] | 1.35 ± 0.083 | 1.75 ± 0.17 | 1.48 ± 0.19 | 1.82 ± 0.14
